Reference: PMC10214663

Biological target: FGF4-Fc (human) (UniProt P08620)
Assay: BLI; Octet RED K2; FGF4-Fc (25 µg/mL) on Protein-A sensors, galectins at 0.2 µM to 6 µM; heterogeneous ligand (2:1) model; steady-state analysis for galectin-1

FGF4-Fc (human), sequence (P08620 31-206): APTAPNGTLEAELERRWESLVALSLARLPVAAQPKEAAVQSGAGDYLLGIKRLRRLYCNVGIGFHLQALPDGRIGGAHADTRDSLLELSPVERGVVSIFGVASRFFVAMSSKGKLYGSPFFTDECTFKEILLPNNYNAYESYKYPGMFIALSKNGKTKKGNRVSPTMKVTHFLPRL

- KD1: 724 nM
- KD2: 140 nM
- KOff1: 0.0755 s⁻¹
- KOff2: 0.000115 s⁻¹
- Kon1: 104000 M⁻¹ s⁻¹
- Kon2: 823 M⁻¹ s⁻¹
Substance: galectin-8 (natural protein)
